Paper PMC7814183, “Supramolecular polymerization of sulfated dendritic peptide amphiphiles into multivalent L-selectin binders” (Beilstein Journal of Organic Chemistry, 2021)
Where two headings read alike, the source gives them in different places. Blank lines part the entries; values can stand above or below the compound they belong to.

Tests used:
[1] = CD spectroscopy, ionic strength-dependent titration of self-assembly; format: physicochemical; details: 25 µM solution in 20 mM TRIS, pH 7.4; CD band around 218 nm
Excerpt: The self-assembly behavior of the peptide-based materials can be readily investigated using CD spectroscopy. The supramolecular polymerization strongly relies on the formation of secondary structure elements, leading to ordered domains that lead to characteristic CD band spectra. By probing aqueous solutions of I at different concentrations in H2O, a strongly negative CD band at around λ ≈ 220 nm became apparent (Figure 1A). In the past we have assigned this characteristic CD band to a β-sheet-dominated short-range ordering of oligopeptide monomers, which is stable over a wide concentration range [30, 39–40].
Attaching functional groups to the dendritic peptide amphiphiles – and thus the supramolecular polymers – by exchanging one of the shielding dendritic tetra(ethylene glycol) dendrons is important with regard to potential applications. However, depending on the nature of the functional groups, the influence on the self-assembly behavior may not be neglected. In the present work, the installation of a sulfated oligoglycerol dendron introduces eight anionic charges to the periphery of the peptide amphiphile II that possibly counteracts the β-sheet-driven self-assembly due to electrostatic repulsion. CD spectroscopic experiments based on 25 µM or 50 µM solutions of II in 20 mM TRIS as well as PBS buffer support this notion (Figure 2A and Figure S2 in Supporting Information File 1). […]

[2] = TEM of negatively stained solutions (self-assembly morphology); format: physicochemical; details: TEM (25 µM, TRIS 20 mM pH 7.4, 100 mM NaCl) and cryo-TEM (50 µM, PBS (-/-) pH 7.4, 100 mM NaCl)
Experimental: The application of transmission electron microscopy (TEM) gave further insight into the morphology of the assemblies induced by the secondary structure formation (Figure 1). All samples for convential TEM imaging were prepared by placing 5 μL of the aqueous solution on a sample grid for 1 min, followed by the removal of the excess liquid using a filter paper and subsequent negative staining using a 2% uranyl acetate solution. By analyzing a 25 μM aqueous solution of I, long rigid anisotopic rod-like structures with lengths of 200–400 nm could be visualized (Figure 1B and 1C), in agreement with our previously reported findings. […] The copresence of shorter, more flexible structures could be seen as well. […] Since the morphology of the aqueous supramolecular polymers observed in dry TEM can be influenced by the sample preparation, cryo-TEM experiments were furthermore performed in order to visualize the assemblies in a native state (Figure 1D and Figure S1 in Supporting Information File 1). The presence of straight nanorods of over 200 nm in length with a high degree of lateral order could be observed, thus corroborating the interpretations from dry TEM experiments.
In order to compare the morphology of the self-assembled sulfated compound II with the TEG-decorated compound I, TEM and cryo-TEM experiments were performed (Figure 2B and 2C). […]

L-selectin [3] = target: T1, L-selectin (Homo sapiens, UniProt P14151); assay: competitive SPR L-selectin binding (inhibition) assay; details: competitive SPR (BIAcore X); L-selectin/Fc chimera on protein A-coated 15 nm gold nanoparticles preincubated with analyte; chip with immobilized sulfated tyrosine/sialyl-Lewis X ligand; HEPES 0.020 M pH 7.4, 0.150 M NaCl, 0.001 M CaCl2; sigmoidal fit
T1 construct: purchased R&D Systems, Minneapolis, USA
T1 sequence (P14151 with tags, fused parts or gaps limits assumed, species assumed): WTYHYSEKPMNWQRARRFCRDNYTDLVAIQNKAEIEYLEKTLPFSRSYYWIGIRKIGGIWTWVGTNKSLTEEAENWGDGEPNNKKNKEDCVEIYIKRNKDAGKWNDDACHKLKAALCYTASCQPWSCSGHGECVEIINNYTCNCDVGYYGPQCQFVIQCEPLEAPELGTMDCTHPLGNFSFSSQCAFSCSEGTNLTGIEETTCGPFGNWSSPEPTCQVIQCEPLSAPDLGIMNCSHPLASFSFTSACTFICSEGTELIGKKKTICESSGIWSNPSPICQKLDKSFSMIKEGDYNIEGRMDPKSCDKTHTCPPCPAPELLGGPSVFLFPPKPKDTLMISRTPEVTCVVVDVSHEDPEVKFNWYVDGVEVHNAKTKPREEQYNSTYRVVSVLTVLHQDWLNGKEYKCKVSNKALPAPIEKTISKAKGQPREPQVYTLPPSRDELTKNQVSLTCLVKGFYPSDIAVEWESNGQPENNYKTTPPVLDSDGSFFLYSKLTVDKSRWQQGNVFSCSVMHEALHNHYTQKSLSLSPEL
Experimental: The L-selectin binding behavior of the sulfated supramolecular polymer resulting from II was assessed using a competitive surface plasmon resonance (SPR) binding assay, whereby neutral supramolecular polymers of I were used as control experiment. L-Selectin-coated gold nanoparticles were incubated with analyte solutions of different concentrations and subsequently probed on an SPR-chip modified with immobilized sulfated tyrosine and sialyl-Lewis^X as model ligands. The resulting signal is referenced to a control experiment lacking the preincubation of L-selectin particles. Figure 3 summarizes the resulting dose–response curves.
Figure 3 Concentration-dependent relative L-selectin binding of the supramolecular polymers I and II in HEPES buffer (0.020 M, pH 7.4, with 0.150 M NaCl and 0.001 M CaCl2) measured by SPR. L-Selectin-coated nanoparticles were preincubated with solutions of the supramolecular polymers. […]
(Quantifoil R1/4) at room temperature. […]
autoloader protocol. The micrographs were recorded under low -dose conditions with a primary
magnification of 28000x and an acceleration voltage of 200 kV. The images were recorded by […]
Minneapolis, USA), and the binding signal to the artificial ligand was recorded. […]
taken, which yielded the respective dose–response curves. The IC50 values were determined […]

L-selectin [4] = target: T1, L-selectin; details: literature comparison values; read-out: IC50, L-selectin binding; cited from earlier work
Excerpt: However, the densely sulfated dendritic polyglycerol of similar molecular weight is able to bind in the ...

Compound: COCCOCCOCCOCCOCC(COCCOCCOCCOCCOC)(COCCOCCOCCOCCOC)NC(=O)CCCCCNC(=O)[C@H](Cc1ccccc1)NC(=O)[C@H](Cc1ccccc1)NC(=O)[C@H](Cc1ccccc1)NC(=O)c1cc(C(=O)N[C@@H](Cc2ccccc2)C(=O)N[C@@H](Cc2ccccc2)C(=O)N[C@@H](Cc2ccccc2)C(=O)NCCCCCC(=O)NCCOCCNC(=O)Cn2cc(COC(COC(COC(COS(=O)(=O)O)COS(=O)(=O)O)COC(COS(=O)(=O)O)COS(=O)(=O)O)COC(COC(COS(=O)(=O)O)COS(=O)(=O)O)COC(COS(=O)(=O)O)COS(=O)(=O)O)nn2)cc(C(=O)N[C@@H](Cc2ccccc2)C(=O)N[C@@H](Cc2ccccc2)C(=O)N[C@@H](Cc2ccccc2)C(=O)NCCCCCC(=O)NC(COCCOCCOCCOCCOC)(COCCOCCOCCOCCOC)COCCOCCOCCOCCOC)c1 [II]
added NaCl at which the characteristic β-sheet CD signature is restored [1]: > 100 mM
length of long rigid rods [2]: several hundred nanometers

IC50 (L-selectin [3]): 5 µM
Compound: COCCOCCOCCOCCOCC(COCCOCCOCCOCCOC)(COCCOCCOCCOCCOC)NC(=O)CCCCCNC(=O)[C@H](Cc1ccccc1)NC(=O)[C@H](Cc1ccccc1)NC(=O)[C@H](Cc1ccccc1)NC(=O)c1cc(C(=O)N[C@@H](Cc2ccccc2)C(=O)N[C@@H](Cc2ccccc2)C(=O)N[C@@H](Cc2ccccc2)C(=O)NCCCCCC(=O)NC(COCCOCCOCCOCCOC)(COCCOCCOCCOCCOC)COCCOCCOCCOCCOC)cc(C(=O)N[C@@H](Cc2ccccc2)C(=O)N[C@@H](Cc2ccccc2)C(=O)N[C@@H](Cc2ccccc2)C(=O)NCCCCCC(=O)NC(COCCOCCOCCOCCOC)(COCCOCCOCCOCCOC)COCCOCCOCCOCCOC)c1 [I]

Compound: unfractionated heparin
IC50 (L-selectin [4]): 12 µM
